T1: Smc6 (subunit of the budding yeast Smc5/6 holo-complex) (budding yeast, UniProt Q12749 1-1114)
T1 sequence: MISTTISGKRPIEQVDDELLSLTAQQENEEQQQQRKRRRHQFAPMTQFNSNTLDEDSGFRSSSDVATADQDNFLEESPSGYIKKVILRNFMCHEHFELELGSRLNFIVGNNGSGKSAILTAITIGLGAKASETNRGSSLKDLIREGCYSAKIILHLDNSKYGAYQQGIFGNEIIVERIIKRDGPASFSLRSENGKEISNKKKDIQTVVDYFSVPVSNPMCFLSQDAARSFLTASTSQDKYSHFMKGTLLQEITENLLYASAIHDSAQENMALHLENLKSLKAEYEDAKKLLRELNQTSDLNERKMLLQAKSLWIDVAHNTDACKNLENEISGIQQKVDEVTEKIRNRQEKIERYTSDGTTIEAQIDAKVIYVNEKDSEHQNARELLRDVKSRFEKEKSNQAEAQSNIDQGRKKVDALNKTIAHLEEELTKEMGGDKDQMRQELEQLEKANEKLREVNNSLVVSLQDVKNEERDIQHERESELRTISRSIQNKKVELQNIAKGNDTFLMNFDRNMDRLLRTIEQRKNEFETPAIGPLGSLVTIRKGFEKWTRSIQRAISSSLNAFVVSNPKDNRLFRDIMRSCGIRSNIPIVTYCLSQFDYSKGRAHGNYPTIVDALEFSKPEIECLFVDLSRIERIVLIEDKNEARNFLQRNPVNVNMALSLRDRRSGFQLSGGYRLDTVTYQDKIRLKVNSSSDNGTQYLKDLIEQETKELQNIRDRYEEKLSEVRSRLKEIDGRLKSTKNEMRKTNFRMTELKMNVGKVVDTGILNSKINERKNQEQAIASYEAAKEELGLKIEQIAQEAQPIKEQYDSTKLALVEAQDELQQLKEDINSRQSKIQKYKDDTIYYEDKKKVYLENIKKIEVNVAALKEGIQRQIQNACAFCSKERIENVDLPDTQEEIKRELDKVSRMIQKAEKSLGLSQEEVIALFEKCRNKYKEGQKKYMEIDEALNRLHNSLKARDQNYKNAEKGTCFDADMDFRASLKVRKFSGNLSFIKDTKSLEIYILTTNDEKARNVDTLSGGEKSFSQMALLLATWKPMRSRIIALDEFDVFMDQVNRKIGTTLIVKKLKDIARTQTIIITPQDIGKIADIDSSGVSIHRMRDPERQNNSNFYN

B1: Smc5 (subunit of the budding yeast Smc5/6 holo-complex) (natural protein)
chain: MTSLIDLGRYVERTHHGEDTEPRSKRVKIAKPDLSSFQPGSIIKIRLQDFVTYTLTEFNLSPSLNMIIGPNGSGKSTFVCAVCLGLAGKPEYIGRSKKVEDFIKNGQDVSKIEITLKNSPNVTDIEYIDARDETIKITRIITRSKRRSDYLINDYQVSESVVKTLVAQLNIQLDNLCQFLSQERVEEFARLKSVKLLVETIRSIDASLLDVLDELRELQGNEQSLQKDLDFKKAKIVHLRQESDKLRKSVESLRDFQNKKGEIELHSQLLPYVKVKDHKEKLNIYKEEYERAKANLRAILKDKKPFANTKKTLENQVEELTEKCSLKTDEFLKAKEKINEIFEKLNTIRDEVIKKKNQNEYYRGRTKKLQATIISTKEDFLRSQEILAQTHLPEKSVFEDIDIKRKEIINKEGEIRDLISEIDAKANAINHEMRSIQRQAESKTKSLTTTDKIGILNQDQDLKEVRDAVLMVREHPEMKDKILEPPIMTVSAINAQFAAYLAQCVDYNTSKALTVVDSDSYKLFANPILDKFKVNLRELSSADTTPPVPAETVRDLGFEGYLSDFITGDKRVMKMLCQTSKIHTIPVSRRELTPAQIKKLITPRPNGKILFKRIIHGNRLVDIKQSAYGSKQVFPTDVSIKQTNFYQGSIMSNEQKIRIENEIINLKNEYNDRKSTLDALSNQKSGYRHELSELASKNDDINREAHQLNEIRKKYTMRKSTIETLREKLDQLKREARKDVSQKIKDIDDQIQQLLLKQRHLLSKMASSMKSLKNCQKELISTQILQFEAQNMDVSMNDVIGFFNEREADLKSQYEDKKKFVKEMRDTPEFQSWMREIRSYDQDTKEKLNKVAEKYEEEGNFNLSFVQDVLDKLESEIAMVNHDESAVTILDQVTAELRELEHTVPQQSKDLETIKAKLKEDHAVLEPKLDDIVSKISARFARLFNNVGSAGAVRLEKPKDYAEWKIEIMVKFRDNAPLKKLDSHTQSGGERAVSTVLYMIALQEFTSAPFRVVDEINQGMDSRNERIVHKAMVENACAENTSQYFLITPKLLTGLHYHEKMRIHCVMAGSWIPNPSEDPKMIHFGETSNYSFD
B2: Nse2 SUMO ligase (subunit of the budding yeast Smc5/6 holo-complex) (natural protein)
chain: MALNDNPIPKSVPLHPKSGKYFHNLHARDLSNIYQQCYKQIDETINQLVDSTSPSTIGIEEQVADITSTYKLLSTYESESNSFDEHIKDLKKNFKQSSDACPQIDLSTWDKYRTGELTAPKLSELYLNMPTPEPATMVNNTDTLKILKVLPYIWNDPTCVIPDLQNPADEDDLQIEGGKIELTCPITCKPYEAPLISRKCNHVFDRDGIQNYLQGYTTRDCPQAACSQVVSMRDFVRDPIMELRCKIAKMKESQEQDKRSSQAIDVL
B3: Nse5 (subunit of the budding yeast Smc5/6 holo-complex) (natural protein)
chain: MDGALINSVLYVSPRNGAHYFVELTEKHLLAFEMLNSMCLLENYDHVLLFLECQFGKSHNLAVIPFDIILVLFTLSTLSEYYKEPILRANDPYNTSRETLSRRALKLLQKYLAILKEFDSEQYNLYDLELLRCQFFLAIDTLTPKKQKWGFDRFRRTKSESGVTYRQNASVDPELDQAKTFKNPYRSYISCLEQRNTILGNRLLNLKLNEPGEFINMILWTLSNSLQESTPLFLSSHEIWMPLLEILIDLFSCRQDYFIQHEVAQNVSKSLFVQRLSESPLAVFFESLNTRNFANRFSEYVFLNCDYKLPSDNYATPVHPVYNGENTIVDTYIPTIKCSPLYKSQKSLALRRKLIGSCFKLLLRVPDGHRLITPRIVADDVIQGISRTLASFNDILQFKKFFMTENLSQESYFIPLLAEGTLSEILKDTQECVVILTLVENLSDGVSFCNEVIGLVKSKCFAFTEQCSQASYEEAVLNIEKCDVCLLVLLRYLLHLIGTEAILDAKEQLEMLHAIEKNDSGRRQWAKALNLGNDPPLLYPIVSQMFGVHDKSVIIE
B4: Nse6 (subunit of the budding yeast Smc5/6 holo-complex) (natural protein)
chain: MGSVNSSPNEEFETVPDSQISGFDSPLIPTSVGSYFRDDDDDEKVHPNFISDPENDSLNSDEEFSSLENSDLNLSGAKAESGDDFDPILKRTIISKRKAPSNNEDEEIVKTPRKLVNYVPLKIFNLGDSFDDTITTTVAKLQDLKKEILDSPRSNKSIVITSNTVAKSELQKSIKFSGSIPEIYLDVVTKETISDKYKDWHFISKNCHYEQLMDLEMKDTAYSFLFGSSRSQGKVPEFVHLKCPSITNLLVLFGVNQEKCNSLKINYEKKENSRYDNLCTIFPVNKMLKFLMYFYSDDDNDDVREFFLKAFICLILDRKVFNAMESDHRLCFKVLELFNEAHFINSYFEIVDKNDFFLHYRLLQIFPHLQSALLRRRFSEKQGRTETIQQNIIKEFNEFFDCKNYKNLLYFILTMYGSKFIPFGPKCQVTEYFKDCILDISNETTNDVEISILKGILNLFSKIR

Key:
[1] = target: T1, Smc6 (subunit of the budding yeast …); test: negative stain EM
[2] = target: B1; test: cross-linking
[3] = target: T1, Smc6 (subunit of the budding yeast …); test: cross-linking
[4] = target: B4; test: cross-linking
[5] = target: B3; test: cross-linking

binding result [1] | binding result [2] | binding result [3] | binding result [4] | binding result [5] | Binder
binds |  |  |  |  | B1
 | binds | binds | binds |  | B2
 | binds | binds |  |  | B3
 | binds | binds |  | binds | B4
